Experimental data reported in a protein production outcome set (Wang et al. 2014).

Test: label from the status in PepcDB records
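Note: failed if final PepcDB status was selected cloned or expressed and not failed if soluble or beyond.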

| Sequence | protein production |
| --- | --- |
| MVGNKVKSFMLPIISYAVPTFVLVYPSFFVSWLSESMHLAYWEVFAIVALPFLGRIIGSFIYQVFKNSVISYCFPFLGFLVILQNFLGALIFVRFLVGVIFGLLTSYAVESAVKSGRNVLVGFTTAGWPIGWVISYVAYVLLKNWNVINISGILIMLLALFELNGKEFGERSKISVSFPRLTSILIYVSALTPAFILQVMPSFLEVIKLTWLILPSYLLSIPTYVLLPIISEKVGIRKVLVISSIIVILSCVITFLLLPMMVIVFTSIGLGILGITPKYLAIRGEDPKRMGLALNIGSVMGLILPVVYGLMPFSSEFLLSILMVLMILI | failed |
| MAIESGYILTTPCKNEEKSLPELAESIINQTITPKLWLIINDNSTDNSAKILRDIETKYNWIRVVTSEGQKRDLSFHYAEVVRYGLSLSLEISSAEKIPVEYIGLIDADMILEKNFFEKMIDRFEQDPNLGVASGSTAYFEAENLVTEKGRDNLPIGGLRVWRRECLIETGGFPLSYSADSVSNVLALLHGWETKKFEDIIGIQTRRTGSAEGLWKGYITKGESDYYRDYHPVYVLSKFIKYSFTHPFYIGIAYMEGYINGIVKIKKKICIPEVRRYYRKKHLEIGRYYAGKFKFKLLEHHHHHH | failed |
| MAPACTTVHRRRAPLAAVLMLSLLPVLSPHADAAQVPWHSRTFKYVADNKDLKEVLRDLSASQSIATWISPEVTGTLSGKFETSPQKFLDDLAATYGFVWYYDGAVLRIWGANESKSATLSLGTASTKSLRDALARMRLDDPRFPVRYDETAHVAVVSGPPGYVDTVSAIAKQVEQGARQRDATEVQVFQLHYAQAADHTTRIGGQDVQIPGMASLLRSMYGARGAPVAAIPGPGANFGRVQPIGGGSSNTFGNAAQGQGGGASGILGLPSSWFGGASSSDRVPVSPPLPGSGTAATAGSPASVWPELSKGRRDESTPIDAGGGAELASDAPVIEADPRTNTILIRDRPERMQSYGTLIQQLDNRPKLLQIDATIIEIRDGAMQDLGVDWRFHSQHTDIQTGNGSGGQLGFNGALSGAATDGATTPAGGTLTAVLGDAGRYLMTRVSALETTNKAKIVSSPQVATLDNVEAVMDHKQQAFVRVSGYASADLYNLSAGVSLRVLPSVVPGSPNGQMRLDVRIEDGQLGSNTVDGIPVITSSEITTQAFVNEGQSLLIAGYAYDADETDLNAVPGLSKIPLLGNLFKHRQKSGSRMQRLFLLTPHVVSP | failed |
| MTENELLTRCGGKCELCGSDVELAIYDLPASDGHENEIMICENCSSQIAAPDTMDMNHWRCLNDSMWSQVPAVQVMSYRMLKRLSGESWAQDLLDMLYLEDDLRAWGDAEAAAASDDTPPTLDSNGAVLNAGDTVVIIKDLNVKGTSFVAKRGTAVRNIALTNNPEHIEGRVNGTRIVILTCFVKKSLEHHHHHH | not failed |
| EASSKSYRELIIEGLTALKERKGSSRPALKKFIKENYPIVGSASNFDLYFNNAIKKGVEAGDFEQPKGPAGAVKLAKK | not failed |
| MVKKFKRVLVANRGEIAIRIFRACHELGIRTVAIYSEEDKLALFRTKADESYLIGQNKGPVDAYLNIDEIINLALKKGVDAIHPGYGFLSENSEFSRRCTEAGIEFIGPTGDMMDKLGDKINSKLAAKAAGVKTIPGVEKPIETEQQAIEFARTCGYPVMVKAAAGGGGRGMRIVEKEEDLIAACRSAKSEAKKAFGIEDIFIEKYLEGPKHIEVQVLGDKYGNIVHLYERDCSVQRRHQKVIELTPAVSMSEEKRLEICEDALKIARSIGYRSAGTLEFLLDKHGNHYFIEMNPRVQVEHTITEMVTGIDIVQSQILIAEGYKLNSPEVGINSQEDIHVNGYAIQCRITTEDPSNSFAPDTGKIDVYRTGSGFGIRLDGGNGFTGAVISPYYDSLLVKSTSWSRTFEDAIRKAIRAIKETYISGVKTNIDFLINVLNHETFRKGLCDTNFIANNPELFEITPRIDTELRVLKFIGEKVVNETHGHKIEVDVPSVPKYEIKEPLRGTKQILDEKGPKGLVEWIKDQDKLLLTDTTMRDAHQSLMATRLRTVDMVKIAKAESVLAKDLFSMEMWGGATFDTAYRFLKESPWERLERLRKRVPNVLFQMLLRGANAVGYKNYPDNVIREFIKQSSKSGIDVFRIFDSLNWVKGMEVAIDEVLNQGKVAEACMCYTGDILDTNRDKYTLNYYVNLAKEIEKSGAHILGIKDMSALLKPYAALKLIRALKNEISIPIHLHTHDTTGNGVATVLMAAHAGVDIADTAFNSMSGLTSQPALNSVVAALKNTDRDTKMDIGDLQKISDYWSTVRPVYSKFESGLKAVSAEIYKYEIPGGQYSNLKPQVESFGLGHRFEQVKEMYREVNIMLGDIVKVTPSSKMVGDLAIFMVQNELTSENILEKAKDMPFPDSVVSYFKGMMGQPKGGFPKELQKIVLKDEEAITCRPGELLPDEDFDKIRVRLKKENKIEPTDKDVISYALYPDVFEEYLKYKNEYGDLSRMGSDVFFHGLAEGEISELEIAEGKTLVVQLLHIGKLDKQGNRTLVFEVNGNRREIKIKDKVSSTKSEIVEEIVIADSSNKKEIGASIPGNVVKVFVKPGDKVKKGDSLMVIEAMKMETNVSVSEDGTVGGIFVKEGDQVQSGQLLVKLD | failed |
| MRFKFLRGKLNHPIKCVCDNLSMDNQIMSTELYSQILEVIALVPFGKVATYGQIARLAGLPKHARLVGYTLKNIDQASDIPWHRIINAQGKVSTYHLNQIGENIQLNKLRDEGIVVLNGKINLKKYQWLVSQS | failed |
| MTKFYKFLISIIILALVCLIFFLAKSNILNLDSLKNLILSSGYFAPLIYIIAFALVPLTFFPDSILAILGGSIFGLGGGFLYTSIGALIGGSISFFISRILGQSFVEKFENDKLKNIQELLKDNGFLMILLLRLIPLFPFDLISYGAGLTKISYKDFALGTLIGTIPGILVFVNLGAQWITFNKTSIYLSVSLLILFIIVSVFLKKIYINKHLAKGN | failed |
| MCLKNNAKDEIMDSTKAWYQSRTIWGALIAVFAPLFSIAGFDLPAGLHGELAEGLVTVAGGIGGLIALYGRLSATRSIR | failed |
| MDIFQLQGLFLVLSAILGYFLHNRLSVRIVSFVNNWINLPLIFLVTYLQRGFEVSDAKIFLTSVIYNFLMFVIVLYLTREIEPFSRGSVLINSIFMNTINLPFSILLAFRGNYEISATVAVAMATLRLPIVMIIFTYLNKGISVIHNTTNNSIIRTNLSRYLPVITFLIGGSLHYVVGSVINVDIVNTINLILILIVLYEFGYQIRRVIGEMRIKDVTSKPYMIIYISRILISPILIFLILISLGITSKIIIEQVMVTAIMAPAITNVVWARVYGFGTEIIVKSTLILTPISTIIAIIFLILY | failed |
| MPDLTRRNFSNLLSFPMPDTRPAKAGGQPRPFFRLGVVRFGLATALALFWVGAFASTATGQRTSRTPDQLENVGVDQKLGATIPKDLSFQNEQGEPVRLSQYFDGSTPVMLTLNYHRCPQLCRIQLQKFTKSLSGMSWTAGDKFKVLTVDISPYEGPKMARKAQERYATFLDRPEETVDGWHFLTGNQAAIETLTDSVGFRYQPLPEKEKQFAHPTTIIFLSGDGTITRYFTTLDPAPGDLRTALVEASDGTVGNVVDKAFLACARFNPDSNSYSASAFKLMQYGSVLTVIVMGAALFVFWRRENEQLETAHEEGLNAMVDEQA | failed |
| MSKVIFALVLVVVLVACINATYVEFEEAYAPVDCKGQCTTPCEPLTACKEKCAESCETSADKKTCRRNCKKADCEPQDKVCDACRMKCHKACRAANCASECPKHEHKSDTCRACMKTNCK | not failed |
| MALLRRFIGQKVRTVIQVTGSEIGSVVGKSTDDLQIVVRGSSPPSPLTTYLEVIGIAESDNAIRAETWTNFGNTFDTQNYNELCKLAN | failed |
| MTVTATSVDEPEQLEPQAAPASRGARRVRRLVPAAAATLSGVLLYVSFPPRTLWWLALPAFAVLGWALRDRTWKAGLGLGYLFGLGFLLPLLVWTGVEVGPGPWLALAVVEAVFVALVGAGIAMVSRLPAWPLWAAALWIAGEAARARAPFGGFPWGKIAFGQADGVFLPLAAAGGTPVLGFAVVLCGFGLYEIVRQVVDGRRTGVVRRGAAAVALLSVAVPVVGALAARSLVSDKAEDGTATVAVIQGNVPRSGLEFNAQRRAVLDHHARETERLAAKIKAGKVAQPDFVLWPENSSDIDPFTNPDARAVIDSAAKAVGVPISVGGVVERDGKLYNEQILWDPAKGALDTYDKRQVQPFGEYLPLRSLLGAINKNWTSMVRQDFSRGTEPGVFTMAGTKVGLATCYEAAFDWAVRDNITHGAQIISVPSNNATFDRSEMTYQQLAMSRVRAVEHSRTVTVPVTSGVSAVIMPDGKITQKTGMFVADSLVQKVPLRSSQTPATRLGILPEMVLVLVAAGGLGWSVAAVVRGRRNDALQG | failed |
| MSGFSMKRVSQMTALAMALGLACASSWAAELAKPLTLDQLQQQNGKAIDTRPSAFYNGWPQTLNGPSGHELAALNLSASWLDKMSTEQLNAWIKQHNLKTDAPVALYGNDKDVDAVKTRLQKAGLTHISILSDALSEPSRLQKLPHFEQLVYPQWLHDLQQGKEVTAKPAGDWKVIEAAWGAPKLYLISHIPGADYIDTNEVESEPLWNKVSDEQLKAMLAKHGIRHDTTVILYGRDVYAAARVAQIMLYAGVKDVRLLDGGWQTWSDAGLPVERGTPPKVKAEPDFGVKIPAQPQLMLDMEQARGLLHRQDASLVSIRSWPEFIGTTSGYSYIKPKGEIAGARWGHAGSDSTHMEDFHNPDGTMRSADDITAMWKAWNIKPEQQVSFYCGTGWRASETFMYARAMGWKNVSVYDGGWYEWSSDPKNPVATGERGPDSSK | failed |
| MDLFSNLALGFQVAASPTNLLLCLTGALVGTLIGVLPGIGTIATVAMLLPITFGLPPVGALIMLAGIYYGAQYGGSTTSILVNIPGEATSVVTTLDGFQMAKQGRAGPALAIAAIGSFAAGCFATVLIALVGEPLTRLALEFGPAEYFSLMVLGLVFAVVLARGSVLKAVAMIVLGLLLSTVGSDIETGVSRMTFDVPELADGLGFATVAMGVFGFAEIIRNLDFGAATDRELVQQKITGLMPTRKDLRDAAPAIGRGTLLGSLLGILPGGGAVIASFAAYTLEKKIARDPKRFGRGAIEGVAAPESANNAAAQTSFIPLLTLGIPPNAVMALMVGAMTIHNIVPGPQVMKNQPELVWGMIASMWIGNLMLLVINLPLVGIWVRLLRVPYRLMFPSIVVFCCIGIYSVNNAPVDVVLAGAFGLIGYWLVKHDFEPAPLLLGMVLGPLMEDNLRRALLISRGDATAFVTRPLSASLLVVAAGLLILSVLPMLRRKRDEVFVESEG | failed |
| MSEQNWTDTGRFDNKAAEWDANAIRAALADAVARAIIAHMPVGKPANALEFGCGTGLVTTRIAPHCLQLTAVDSSREMLRMLGEKIAASAIANVTPLHLDFSRPEEAAGLDRDYDFVYSSMTLHHIPDTASFLRELIGHMSPGGALAIADLDAEDGLFHNDATEKVHHGFDRTELQALLESAGFAGVSFMTAHIIEKKNREGNLKNYPVFLVTAVKPKA | failed |
| MKDVLAEYASRIVSAEEAVKHIKNGERVALSHAAGVPQSCVDALVQQADLFQNVEIYHMLCLGEGKYMAPEMAPHFRHITNFVGGNSRKAVEENRADFIPVFFYEVPSMIRKDILHIDVAIVQLSMPDENGYCSFGVSCDYSKPAAESAHLVIGEINRQMPYVHGDNLIHISKLDYIVMADYPIYSLAKPKIGEVEEAIGRNCAELIEDGATLQLGIGAIPDAALLFLKDKKDLGIHTEMFSDGVVELVRSGVITGKKKTLHPGKMVATFLMGSEDVYHFIDKNPDVELYPVDYVNDPRVIAQNDNMVSINSCIEIDLMGQVVSECIGSKQFSGTGGQVDYVRGAAWSKNGKSIMAIPSTAKNGTASRIVPIIAEGAAVTTLRNEVDYVVTEYGIAQLKGKSLRQRAEALIAIAHPDFREELTKHLRKRFG | not failed |
